{"source": "paper PMC7116363", "about": "(Biomaterials, 2020)", "origin": "cited, not measured here", "key": {"[1]": {"test_system": "L cells", "settings": "in mice"}, "[2]": {"assay": "not given", "remark": "listed apart in the source"}}, "data": [{"molecule": "liraglutide", "values": [{"measurement": "circulating levels after oral co-administration with SNAC", "value": "failed to provide circulating levels"}]}, {"molecule": "CCC(=O)O", "note": "[propionate]", "values": [{"measurement": "effective concentration of propionate needed to exert an effect on L cells", "setting": "[1]", "value": 140, "unit": "mmol/L"}]}, {"molecule": "semaglutide", "values": [{"measurement": "half-life", "setting": "[2]", "value": 165, "unit": "h"}]}]}
